This note sets out measurements from IntAct's records for PubMed 22491013.

B1: Low-density lipoprotein receptor-related protein 6 (Homo sapiens), O75581 (parent)
chain: MGAVLRSLLACSFCVLLRAAPLLLYANRRDLRLVDATNGKENATIVVGGLEDAAAVDFVFSHGLIYWSDVSEEAIKRTEFNKTESVQNVVVSGLLSPDGLACDWLGEKLYWTDSETNRIEVSNLDGSLRKVLFWQELDQPRAIALDPSSGFMYWTDWGEVPKIERAGMDGSSRFIIINSEIYWPNGLTLDYEEQKLYWADAKLNFIHKSNLDGTNRQAVVKGSLPHPFALTLFEDILYWTDWSTHSILACNKYTGEGLREIHSDIFSPMDIHAFSQQRQPNATNPCGIDNGGCSHLCLMSPVKPFYQCACPTGVKLLENGKTCKDGATELLLLARRTDLRRISLDTPDFTDIVLQLEDIRHAIAIDYDPVEGYIYWTDDEVRAIRRSFIDGSGSQFVVTAQIAHPDGIAVDWVARNLYWTDTGTDRIEVTRLNGTMRKILISEDLEEPRAIVLDPMVGYMYWTDWGEIPKIERAALDGSDRVVLVNTSLGWPNGLALDYDEGKIYWGDAKTDKIEVMNTDGTGRRVLVEDKIPHIFGFTLLGDYVYWTDWQRRSIERVHKRSAEREVIIDQLPDLMGLKATNVHRVIGSNPCAEENGGCSHLCLYRPQGLRCACPIGFELISDMKTCIVPEAFLLFSRRADIRRISLETNNNNVAIPLTGVKEASALDFDVTDNRIYWTDISLKTISRAFMNGSALEHVVEFGLDYPEGMAVDWLGKNLYWADTGTNRIEVSKLDGQHRQVLVWKDLDSPRALALDPAEGFMYWTEWGGKPKIDRAAMDGSERTTLVPNVGRANGLTIDYAKRRLYWTDLDTNLIESSNMLGLNREVIADDLPHPFGLTQYQDYIYWTDWSRRSIERANKTSGQNRTIIQGHLDYVMDILVFHSSRQSGWNECASSNGHCSHLCLAVPVGGFVCGCPAHYSLNADNRTCSAPTTFLLFSQKSAINRMVIDEQQSPDIILPIHSLRNVRAIDYDPLDKQLYWIDSRQNMIRKAQEDGSQGFTVVVSSVPSQNLEIQPYDLSIDIYSRYIYWTCEATNVINVTRLDGRSVGVVLKGEQDRPRAVVVNPEKGYMYFTNLQERSPKIERAALDGTEREVLFFSGLSKPIALALDSRLGKLFWADSDLRRIESSDLSGANRIVLEDSNILQPVGLTVFENWLYWIDKQQQMIEKIDMTGREGRTKVQARIAQLSDIHAVKELNLQEYRQHPCAQDNGGCSHICLVKGDGTTRCSCPMHLVLLQDELSCGEPPTCSPQQFTCFTGEIDCIPVAWRCDGFTECEDHSDELNCPVCSESQFQCASGQCIDGALRCNGDANCQDKSDEKNCEVLCLIDQFRCANGQCIGKHKKCDHNVDCSDKSDELDCYPTEEPAPQATNTVGSVIGVIVTIFVSGTVYFICQRMLCPRMKGDGETMTNDYVVHGPASVPLGYVPHPSSLSGSLPGMSRGKSMISSLSIMGGSSGPPYDRAHVTGASSSSSSSTKGTYFPAILNPPPSPATERSHYTMEFGYSSNSPSTHRSYSYRPYSYRHFAPPTTPCSTDVCDSDYAPSRRMTSVATAKGYTSDLNYDSEPVPPPPTPRSQYLSAEENYESCPPSPYTERSYSHHLYPPPPSPCTDSS
partner: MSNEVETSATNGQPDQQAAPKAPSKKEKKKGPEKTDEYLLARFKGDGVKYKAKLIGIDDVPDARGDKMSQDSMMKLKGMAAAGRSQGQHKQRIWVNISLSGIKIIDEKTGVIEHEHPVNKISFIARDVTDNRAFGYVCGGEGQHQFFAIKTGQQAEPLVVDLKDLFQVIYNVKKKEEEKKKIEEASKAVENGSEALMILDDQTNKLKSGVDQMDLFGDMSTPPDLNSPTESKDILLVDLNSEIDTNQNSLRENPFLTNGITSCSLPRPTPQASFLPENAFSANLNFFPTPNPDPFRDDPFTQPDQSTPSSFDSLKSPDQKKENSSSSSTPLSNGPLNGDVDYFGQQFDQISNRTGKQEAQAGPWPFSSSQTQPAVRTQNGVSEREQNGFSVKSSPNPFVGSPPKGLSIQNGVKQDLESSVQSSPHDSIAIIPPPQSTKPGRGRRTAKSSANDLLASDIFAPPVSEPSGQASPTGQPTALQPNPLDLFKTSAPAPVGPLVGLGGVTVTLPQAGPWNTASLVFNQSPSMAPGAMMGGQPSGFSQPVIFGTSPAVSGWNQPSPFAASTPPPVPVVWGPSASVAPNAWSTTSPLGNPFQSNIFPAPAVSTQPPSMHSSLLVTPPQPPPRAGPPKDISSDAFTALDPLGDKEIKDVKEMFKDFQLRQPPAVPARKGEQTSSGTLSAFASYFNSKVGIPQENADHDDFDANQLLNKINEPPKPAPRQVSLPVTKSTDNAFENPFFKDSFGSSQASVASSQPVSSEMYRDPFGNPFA

In one test the parent is B1. The note with it: with dab2_human DAB2, P98082.
For S1613A, the “effect of a mutation on the interaction” value is listed as “increasing interaction”.

Another test covers variants of B1. The note with it: with dab2_human DAB2, P98082. This is another data set of the same source.
Turning to T1593A, the “effect of a mutation on the interaction” value is recorded as “decreasing interaction”.

In another test the parent is B1. The note with it: with dab2_human DAB2, P98082. The source holds these as a separate data set.
Regarding Y1577A, the “effect of a mutation on the interaction” value is recorded as “decreasing interaction”.

Variants of B1 are the subject of another test. The settings on record: with dab2_human DAB2, P98082. The source holds these as a separate data set.
For S1596A, the “effect of a mutation on the interaction” value is “decreasing interaction”.

The variants in a further test derive from B1. The note with it: with dab2_human DAB2, P98082. The source holds these as a separate data set.
As to Y1592A, the “effect of a mutation on the interaction” value is listed as “decreasing interaction”.

The next test covers variants of B1. The note with it: with dab2_human DAB2, P98082. This is another data set of the same source.
Take S1586A: the “effect of a mutation on the interaction” value is given as “decreasing interaction”.

The variants in a further test derive from B1. The settings on record: with dab2_human DAB2, P98082. The source holds these as a separate data set.
In the case of S1607A, the “effect of a mutation on the interaction” value is “decreasing interaction”.

Another test covers variants of B1. The settings on record: with dab2_human DAB2, P98082. The source holds these as a separate data set.
With T1610A, the “effect of a mutation on the interaction” value is listed as “decreasing interaction”.

Variants of B1 are the subject of a further test. The note with it: with dab2_human DAB2, P98082. This is another data set of the same source.
Take T1572A: the “effect of a mutation on the interaction” value is “decreasing interaction”.

Variants of B1 are the subject of another test. The note with it: with dab2_human DAB2, P98082. This is another data set of the same source.
On to S1579A, for which the “effect of a mutation on the interaction” value was “disrupting interaction”.

A further test covers variants of B1. The note with it: with dab2_human DAB2, P98082. This is another data set of the same source.
With S1598A, the “effect of a mutation on the interaction” value was “increasing interaction”.

In another test the parent is B1. The note with it: with dab2_human DAB2, P98082. The source holds these as a separate data set.
Regarding S1575A, the “effect of a mutation on the interaction” value is “decreasing interaction”.

Variants of B1 are the subject of a further test. The note with it: with dab2_human DAB2, P98082. The source holds these as a separate data set.
In the case of S1590A, the “effect of a mutation on the interaction” value is on record as “decreasing interaction”.

In the next test the parent is B1. The settings on record: with dab2_human DAB2, P98082. The source holds these as a separate data set.
For Y1584A, the “effect of a mutation on the interaction” value is recorded as “decreasing interaction”.
